Results: the DeepSol protein solubility set

Experiment: soluble on expression in E. coli; label from the status in PepcDB or PDB records
With “MGSDKIHHHHHHMRVPPHNLEAEVAVLGSILIDPSVINDVLEILSHEDFYLKKHQHIFRAMEELYDEGKPVDVVSVCDKLQSMGKLEEVGGDLEVAQLAEAVPSSAHALHYAEIVKEKSILRKLIEISRKISESAYMEEDVEILLDNAEKMIFEISEMKTTKSYDHLRGIMHRVFENLENFRERANLIEPGVLITGLPTGFKSLDKQTTGFHSSDLVIIAARPSMGKTSFALSIARNMAVNFEIPVGIFSLEMSKEQLAQRLLSMESGVDLYSIRTGYLDQEKWERLTIAASKLYKAPIVVDDESLLDPRSLRAKARRMKKEYDVKAIFVDYLQLMHLKGRKESRQQEISEISRSLKLLARELDIVVIALSQLSRAVEQREDKRPRLSDLRESGAIEQDADTVIFIYREEYYRSKKSKEESKLHEPHEAEIIIGKQRNGPVGTITLIFDPRTVTFHEVDVVHS” the “soluble on expression in E. coli” value was “not soluble”. With “MERDGYKCRICDHSYLDIHYKDGNVENKNLENLIVLCKQCHYRLHQKERMESIKQAFEDFLDELSKNPIEVVIDFSFKKIVESNEEKIRREIIQGFTRPFGVISRIQEKVRDAIMKEIEEEIEKEQASTPEHLRKVVLERNNYRCSVCGYGYLEVHHVDGNILNNTLDNLVTLCRRCHRKVHYHPSFHTTPEDMDKCIRSFHHEFYSTIYEIMKNKKGNIRISIKFDQLGVKGVKISRAQFKRINGLFNHEVINDGIFKQWEREIKNYLSRLEWEQQKEIYRNVYFLLECILPKDSFEAFVNLARKGKFDRRTLREAKKVLKNSIKLEHHHHHH” the “soluble on expression in E. coli” value was “soluble”. In the case of “MKSYPDPYRHFENLDSAETQNFAAEANAETRARFLENDKARALSDGILAQLQDTRQIPFCQEHRARMYHFHQDAEYPKGVYRVCTAATYRSGYPEWKILFSVADFDELLGDDVYLGGVSHLVEQPNRALLTLSKLGSDTAYTLEVDLEAGELVEGGFHFPAGKNHVSWRDENSVWVCPAWNERQLTQSGYPREVWLVERGKSFEESLPVYQIGEDGMMVNAWRYLDPQGSPIDLIEASDGFYTKTYLRVSAEGEAKPLNLPNDCDVVGYLAGHLLLTLRKDWN”, the “soluble on expression in E. coli” value is reported as “not soluble”. For “MRLDYWSDSSKPIQQQWRDYDEISDNFKKAVVAAEDGKFVHHHGFDWEGIQYALEKNEKSGEVVNGGSTISQQLAKNLFLYNQRSLIRKGQEAIATWMMERMWSKQRILEVYMNSVQFGDHLYGVEAASHYYFHRSAQNLTRDQAAFLAALLPNPKYYQENRNDPRFKFKKRFTLKYMRYSEIP”, the “soluble on expression in E. coli” value was “not soluble”. With “MNASDFRRRGKEMVDYMADYLEGIEGRQVYPDVQPGYLRPLIPATAPQEPDTFEDILQDVEKIIMPGVTHWHSPYFFAYFPTASSYPAMLADMLCGAIGCIGFSWAASPACTELETVMMDWLGKMLQLPEAFLAGEAGEGGGVIQGSASEATLVALLAARTKVVRRLQAASPGLTQGAVLEKLVAYASDQAHSSVERAGLIGGVKLKAIPSDGKFAMRASALQEALERDKAAGLIPFFVVATLGTTSCCSFDNLLEVGPICHEEDIWLHVDAAYAGSAFICPEFRHLLNGVEFADSFNFNPHKWLLVNFDCSAMWVKRRTDLTGAFKLDPVYLKHSHQGSGLITDYRHWQLPLGRRFRSLKMWFVFRMYGVKGLQAYIRKHVQLSHEFEAFVLQDPRFEVCAEVTLGLVCFRLKGSDGLNEALLERINSARKIHLVPCRLRGQFVLRFAICSRKVESGHVRLAWEHIRGLAAELLAAEEGKAEIKS” the “soluble on expression in E. coli” value was “soluble”. For “MGSDKIHHHHHHMPEPRRSTIDAGEVERFSALAAEWWNPNGKFRPLHKFNPVRLSYIRDQIAARFGRDPRAARPFEGLRILDIGCGGGLLCEPMARLGAEVVGADASETNIEVAKLHAAEGNVIVDYRATTAEDLADAGETFDVILNMEVVEHVADIDLFVAKCGQMVRPGGIMFVATINRTLKALGLAIIGAEYVLRWLPRGTHQFGKLVRPEELEKALGGASLTIIDRTGVTYNPLADRWARSKDMDVNYMVLAEKGSV”, the “soluble on expression in E. coli” value was “not soluble”. In the case of “MGSDKIHHHHHHMKSDTEEKYLQQVNRVIDYINSHLNEPLRVETLAREVCLSEYHFHRIMRAYLHEPLATYIARQRVERAVMYLQMKNIRLAQVAEMVGYETPQSLSKAFKQFFGISPTAYRKRRAERYEEFSTLKKESLKPEILTEPELKLVYIRIIGRYGEEEPYIEAWRKLRDFLQINGLLTPSTRWIGISFDDPTVTKTEQCRFYACATVEHDVSPQGAFGMKTIPQGRYAVYTLRGSYSGLQEMYDRIYSHPLPTAFRDATSFEEYLNCEPDTEEKDYVTRIYIPIE”, the “soluble on expression in E. coli” value is reported as “not soluble”. In the case of “MVGLLVEDTIDDQGWNRKAYEGLLNIHSNLDVDVVLEEGVNSEQKAHRRIKELVDGGVNLIFGHGHAFAEYFSTIHNQYPDVHFVSFNGEVKGENITSLHFEGYAMGYFGGMVAASMSETHKVGVIAAFPWQPEVEGFVDGAKYMNESEAFVRYVGEWTDADKALELFQELQKEQVDVFYPAGDGYHVPVVEAIKDQGDFAIGYVGDQADLGGSTILTSTVQHVDDLYVLVAKRFQEGKLESGNLYYDFQDGVVSLGEFSSVVPDEVREQITDAISTYIQTGQFPHEEER”, the “soluble on expression in E. coli” value is reported as “soluble”. In the case of “MTPIPLINIPLCNLAGDGYILSEKSQSQNMLRGIVMSETVRVGLLGYGYASKTFHAPLIAGTAGMELVAVSSSNAEKVHADWANLRVEKDPQALFSDPDIDLIVIPTPNDTHFPLAKQALEAGKHVVVDKPFTVTLSQAYDLGAIAERAGKVLSVFHNRRWDSDFLTLKQLLSAGTLGNVVYMESHFDRFRPEVRQRWREDGSEGSGIWYDLGPHLLDQALELFGLPVAIQVDMAQLRPGSKATDYFHATLIYPQRRVILHASMLVAAASARYTVHGTRGSFVKYGLDPQEDRLKAGERPPLADWGQDKHDGVLTLSRDGITAEQTIATIPGNYPAYYAAVRDALLGKGENPVGVNQAIQVMELIELGLLSHEQKKAVALKNSLEHHHHHH”, the “soluble on expression in E. coli” value is reported as “not soluble”. In the case of “MVIRPVERSDVSALMQLASKTGGGLTSLPANEATLSARIERAIKTWQGELPKSEQGYVFVLEDSETGTVAGICAIEVAVGLNDPWYNYRVGTLVHASKELNVYNALPTLFLSNDHTGSSELCTLFLDPDWRKEGNGYLLSKSRFMFMAAFRDKFNDKVVAEMRGVIDEHGYSPFWQSLGKRFFSMDFSRADFLCGTGQKAFIAELMPKHPIYTHFLSQEAQDVIGQVHPQTAPARAVLEKEGFRYRNYIDIFDGGPTLECDIDRVRAIRKSRLVEVAEGQPAQGDFPACLVANENYHHFRVVLARTDPATERLILTAAQLDALKCHAGDRVRLVRLCAEEKTA”, the “soluble on expression in E. coli” value is reported as “not soluble”. In the case of “MLNEFDQYLHERYLSGKARKDRWYWNNSIQRGRSTAVRENWQWKPAVAYCRYADDFVLIVKGTKAQAEAIREECRGVLEGSLKLRLNMDKTKITHVNDGFIFLGHRIIRKRSRYGEMRVVSTIPQEKARNFAASLTALLSGNYSESKVDMAEQLNRKLKGWAMFYQFVDFKAKVFSYIDRVVFWKLAHWLARKYRTGIASLMRWWCKSPKPGQSKTWVLFGKTNHGKLSGEILYRLVGQGKKLFRWRLPEGNPYLRTETRNTYTSRFTEVAMAFASILEHHHHHH”, the “soluble on expression in E. coli” value is reported as “soluble”. With “MKITVLGCGALGQLWLTALCKQGHEVQGWLRVPQPYCSVNLVETDGSIFNESLTANDPDFLATSDLLLVTLKAWQVSDAVKSLASTLPVTTPILLIHNGMGTIEELQNIQQPLLMGTTTHAARRDGNVIIHVANGITHIGPARQQDGDYSYLADILQTVLPDVAWHNNIRAELWRKLAVNCVINPLTAIWNCPNGELRHHPQEIMQICEEVAAVIEREGHHTSAEDLRDYVMQVIDATAENISSMLQDIRALRHTEIDYINGFLLRRARAHGIAVPENTRLFEMVKRKESEYERIGTGLPRPWLEHHHHHH” the “soluble on expression in E. coli” value was “not soluble”. In the case of “MGSDKIHHHHHHMPRLLLVTNDFPPTVGGIQSYLRDFVALLPPEDVVVFASTQDPVAAREFDKSVPYKVVRYSSKLMLPTPQVKKLMVDLIKSEGVSTVWFGAAAPLAVMAPAARAAGAIQIISTTHGHEVGWSMVPGARSVLRFIGQHSDVVTYISDYTLRRFRRAFGEHPKFVHLPSGVDVERFYPVDEKQKFELRDQLGWAEKDKVIVCTSRLVPRKGQDTLIKAFPEIVQRCSEARLVIVGEGRIEGKLRRLAARDQKASSRISFEGRVSEEKMGMMLRGADVFAMPCRTRGGGLDVEGLGIVFLEAQACGVPVIAGDSGGAPETVTPASGVVVNGRDSSSVAHVIVDLVQQPAALMSMGHAGRQHVVDHWTWEIMGARLKSLIL”, the “soluble on expression in E. coli” value is reported as “not soluble”. For “MAHHHHHHMYVLEGFYESVYNARWHHVVEVPDGEGTGMEVREGKSPQSWTYRAAGEFLEKNDGEEQSGALRPRLMVLTSGKGWPYSWEEDESTPDCYVNCEVDRVWQIVRNDLTELLGPDPGADFRPERRVLIGTPGIGKSLAAGSYLLYQLLQYDAEQLPMVAYVFAGRK”, the “soluble on expression in E. coli” value was “not soluble”.
